Measurements from patent US20150165067A1 (Eli Lilly, published 2015).
One block for each binder: values may come before it.

Legend:
[1] = target: human FGFR3 S249C, endogenous on UMUC-14 bladder tumor cells (human) (UniProt P22607); assay: cell-based or functional assay
[2] = target: human FGFR3 on RT-112 bladder tumor cells (wild type and FGFR3-TACC3 fusion receptors) (human) (UniProt P22607); assay: cell-based or functional assay
[3] = target: FGFR3-TACC3 fusion on RT-4 bladder tumor cells (TACC3 exon-4) (human, UniProt Q9Y6A5 140-838, limits assumed); assay: cell-based or functional assay
[4] = target: human FGFR3 Y373C, endogenous on KMS-11 multiple myeloma cells (human) (UniProt P22607); assay: flow cytometry, 15 µg/mL Alexa488-labeled Antibody 1 on KMS-11 cells, quantified with Quantum Simply Cellular beads
[5] = target: human FGFR3 on RT-112 bladder tumor cells (wild type and FGFR3-TACC3 fusion receptors) (human) (UniProt P22607); assay: flow cytometry, 15 µg/mL Alexa488-labeled Antibody 1 on RT-112 cells, quantified with Quantum Simply Cellular beads
[6] = target: human FGFR3 S249C, endogenous on UMUC-14 bladder tumor cells (human) (UniProt P22607); assay: flow cytometry, 15 µg/mL Alexa488-labeled Antibody 1 on UMUC-14 cells, quantified with Quantum Simply Cellular beads
[7] = target: human FGFR3 wild type, endogenous on tumor cell lines (BFTC-905, KU-19-19, UMUC-3) (human) (UniProt P22607); assay: flow cytometry, 15 µg/mL Alexa488-labeled Antibody 1 on BFTC-905 cells, quantified with Quantum Simply Cellular beads
[8] = target: human FGFR3 wild type, endogenous on tumor cell lines (BFTC-905, KU-19-19, UMUC-3) (human) (UniProt P22607); assay: flow cytometry, 15 µg/mL Alexa488-labeled Antibody 1 on KU-19-19 cells, quantified with Quantum Simply Cellular beads
[9] = target: human FGFR3(IIIb) S249C on BaF3 cells (human, UniProt P22607 23-808); assay: cell-based or functional assay
[10] = target: human FGFR3(IIIb) G372C on BaF3 cells (human, UniProt P22607 23-808); assay: cell-based or functional assay
[11] = target: human FGFR3(IIIb) Y375C on BaF3 cells (human, UniProt P22607 23-808); assay: cell-based or functional assay
[12] = target: T1, human FGFR3(IIIb) WT on BaF3 cells (human, UniProt P22607 23-808); assay: cell-based or functional assay
[13] = target: human FGFR3(IIIb) R248C on BaF3 cells (human, UniProt P22607 23-808); assay: cell-based or functional assay
[14] = target: T2, huFGFR3(IIIb), immobilized receptor (human, UniProt P22607-2 23-377, limits assumed); assay: SPR (Biacore); the sentence names no antigen or format, the section is on immobilized huFGFR3(IIIb); naked Antibody 1, not Conjugate 1
T2 construct: Amine-coupled to a CM5 chip; also called human FGFR3(IIIb)
T2 sequence (looked up): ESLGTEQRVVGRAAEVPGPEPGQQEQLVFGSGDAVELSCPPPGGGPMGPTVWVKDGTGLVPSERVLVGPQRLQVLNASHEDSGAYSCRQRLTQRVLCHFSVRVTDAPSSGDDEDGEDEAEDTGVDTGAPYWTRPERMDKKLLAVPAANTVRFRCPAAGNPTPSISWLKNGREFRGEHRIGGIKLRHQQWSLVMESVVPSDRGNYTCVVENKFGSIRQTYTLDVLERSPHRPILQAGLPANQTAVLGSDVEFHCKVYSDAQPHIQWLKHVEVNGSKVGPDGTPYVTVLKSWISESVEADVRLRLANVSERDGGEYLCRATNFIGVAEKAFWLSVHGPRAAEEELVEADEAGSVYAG

[15] = target: human FGFR3 wild type, endogenous on tumor cell lines (BFTC-905, KU-19-19, UMUC-3) (human, UniProt P22607 23-806); assay: cell-based or functional assay
[16] = target: T3, human FGFR3 on RT-112 bladder tumor cells (wild type and FGFR3-TACC3 fusion receptors) (human, UniProt P22607 23-806); assay: cell-based or functional assay
[17] = target: T3, human FGFR3 on RT-112 bladder tumor …; assay: cell-based or functional assay; remark: listed apart in the source
[18] = target: human FGFR3 on Kato-III gastric tumor cells (human, UniProt P22607 23-806); assay: cell-based or functional assay
[19] = target: T1, human FGFR3(IIIb) WT on BaF3 cells; assay: cell-based or functional assay; remark: listed apart in the source
[20] = target: T2, huFGFR3(IIIb), immobilized receptor; assay: SPR, Biacore T200, 25 C, huFGFR3(IIIb) amine-coupled on CM5 chip, Conjugate 1 as analyte, 1:1 model, n=3
Procedure: Use a CM5 chip containing immobilized receptor huFGFR3(IIIb) (generated using standard NHS-EDC amine coupling) on 2 flow cells. Prepare samples of Conjugate 1 by 2 fold serial dilutions starting at 60 nM, 6 dilutions total into running buffer. Immobilize receptor at 2.5 μg/mL (55 RU). Each analysis cycle consists of: (1) sample injection at 30 μL/min with 180 sec contact time, (2) dissociation by injection of buffer for 900 sec at 30 μL/min, (3) regeneration in a 0.5% solution of SDS contact time 30 sec at a flow rate of 40 μL/min. Process data using standard double-referencing and fit to a 1:1 binding model using Biacore® 2000 Evaluation software, version 4.1, to determine the association rate (kₒₙ, M⁻¹s⁻¹ units), dissociation rate (koff, s⁻¹ units), and Rmax (RU units). The equilibrium dissociation constant (KD) is calculated from the relationship of KD=koff/kₒₙ. KD is in molar units.

[21] = target: T4, human FGFR3(IIIb)-Fc (human, UniProt P22607-2 23-377, limits assumed); assay: MSD electrochemiluminescence plate assay: blocking of ruthenium-labeled FGF1 (1 ug/mL, with heparin) binding to coated human FGFR3(IIIb)-Fc
T4 construct: Coated on the MSD plate; not shown: Fc part
T4 sequence (looked up): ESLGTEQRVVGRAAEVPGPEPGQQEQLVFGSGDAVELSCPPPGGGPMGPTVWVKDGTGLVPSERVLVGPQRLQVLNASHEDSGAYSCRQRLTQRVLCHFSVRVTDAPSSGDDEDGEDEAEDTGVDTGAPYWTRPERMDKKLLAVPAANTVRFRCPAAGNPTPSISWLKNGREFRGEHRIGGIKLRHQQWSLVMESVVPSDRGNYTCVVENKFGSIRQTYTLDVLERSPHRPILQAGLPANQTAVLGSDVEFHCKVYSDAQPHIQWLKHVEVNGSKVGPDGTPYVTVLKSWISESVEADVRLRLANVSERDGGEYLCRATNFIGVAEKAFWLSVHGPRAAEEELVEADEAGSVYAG

internalization in UMUC-14 cells, cell-associated fluorescence by flow cytometry over 48 h (fold over control) [1]: > 9
internalization in RT-112 cells, cell-associated fluorescence by flow cytometry over 48 h (fold over background) [2]: 7
internalization in RT-4 cells, cell-associated fluorescence by flow cytometry over 48 h [3]: ~7 fold over background
FGFR3 cell surface expression (ABC) [4]: 120000 ABC
FGFR3 cell surface expression (ABC) [5]: 16000 ABC
FGFR3 cell surface expression (ABC) [6]: 27000 ABC
FGFR3 cell surface expression (ABC) [7]: 11000 ABC
FGFR3 cell surface expression (ABC) [8]: < 4000 ABC
B1: Antibody 1-Alexa488 (antibody, human IgG1, lambda, V domains shown)
VH: EVQLVQSGAEVKKPGASVKVSCKASGYMFTSYGISWVRQAPGQGLEWMGWVSTYNGDTNYAQKFQGRVTVTTDTSTSTAYMELRSLRSEDTAVYYCARVLGYYDSIDGYYYGMDVWGQGTTVTVSS
VL: QSVLTQPPSLSVAPGKTATFTCGGNNIGDKSVHWYRQKPGQAPVLVMYLDTERPSGIPERMSGSNFGNTATLTITRVEAGDEADYYCQVWDSGSDHVVFGGGTKLTVLG
modifications: Alexa488 label (sites not given)

IC50 for neutralizing FGF1 (51.6 nM)-induced 3H-thymidine incorporation in BaF3 cells [9]: 2.17 nM
IC50 for neutralizing FGF9 (34.72 nM)-induced 3H-thymidine incorporation in BaF3 cells [9]: 0.46 nM
IC50 for neutralizing FGF1 (51.6 nM)-induced 3H-thymidine incorporation in BaF3 cells [10]: 4.81 nM
IC50 for neutralizing FGF1 (51.6 nM)-induced 3H-thymidine incorporation in BaF3 cells [11]: 8.77 nM
IC50 for neutralizing FGF9 (34.72 nM)-induced 3H-thymidine incorporation in BaF3 cells [11]: 1.42 nM
IC50 for neutralizing FGF1 (51.6 nM)-induced 3H-thymidine incorporation in BaF3 cells [12]: 4.2 nM
IC50 for neutralizing FGF9 (34.72 nM)-induced 3H-thymidine incorporation in BaF3 cells [12]: 0.4 nM
IC50 for neutralizing FGF1 (51.6 nM)-induced 3H-thymidine incorporation in BaF3 cells [13]: 1.32 nM
Kd [14]: 0.13 nM
B2: Antibody 1 (antibody, human IgG1, lambda, V domains shown)
VH: EVQLVQSGAEVKKPGASVKVSCKASGYMFTSYGISWVRQAPGQGLEWMGWVSTYNGDTNYAQKFQGRVTVTTDTSTSTAYMELRSLRSEDTAVYYCARVLGYYDSIDGYYYGMDVWGQGTTVTVSS
VL: QSVLTQPPSLSVAPGKTATFTCGGNNIGDKSVHWYRQKPGQAPVLVMYLDTERPSGIPERMSGSNFGNTATLTITRVEAGDEADYYCQVWDSGSDHVVFGGGTKLTVLG
notes: Human monoclonal antibody with a lambda light chain; also called naked Antibody 1; anti-FGFR3 antibody

Kd [20]: 0.823 nM
koff [20]: 0.000187 s⁻¹
kon [20]: 227000 M⁻¹ s⁻¹
IC50 [21]: 3.6 nM
B3: Conjugate 1 (antibody, human IgG1, lambda, V domains shown)
VH: EVQLVQSGAEVKKPGASVKVSCKASGYMFTSYGISWVRQAPGQGLEWMGWVSTYNGDTNYAQKFQGRVTVTTDTSTSTAYMELRSLRSEDTAVYYCARVLGYYDSIDGYYYGMDVWGQGTTVTVSS
VL: QSVLTQPPSLSVAPGKTATFTCGGNNIGDKSVHWYRQKPGQAPVLVMYLDTERPSGIPERMSGSNFGNTATLTITRVEAGDEADYYCQVWDSGSDHVVFGGGTKLTVLG
modifications: DM4 attached through the sulfo-SPDB linker to available lysine residues (positions not given); DAR 3.5 ± 0.5 for the whole antibody
notes: also called Antibody 1-sulfo-SPDB-DM4; the conjugate of the present invention
Cytotoxicity Conjugate 1 IC50, BFTC-905 (bladder) cells, Cell Titer-Glo, 96 h [15]: 2.7 nM
Cytotoxicity Conjugate 1 IC50, RT-112 (bladder) cells, Cell Titer-Glo, 96 h [16]: 1.3 nM
cytotoxicity IC50 (nM), RT112 cells [17]: 2.1 nM
cytotoxicity IC50 (nM), Kato-III cells [18]: 5.4 nM
cytotoxicity IC50 (nM), transfected Baf3-FGFR3(IIIb) cells [19]: 2.5 nM
